Experimental data: the Human Domainome abundance scans (Beltran et al. 2025)

B1: Dynamin-binding protein, residues 242 to 304; numbered along this chain, Q6XZF7 (parent)
chain: EEPGTYGVALYRFQALEPNELDFEVGDKIRILATLEDGWLEGSLKGRTGIFPYRFVKLCPDTR
B2: Zinc finger MYM-type protein 6, residues 427 to 504; numbered along this chain, O95789 (parent)
chain: KLKCQHCNHLFATKPELLFYKGKMFLFCGKNCSDEYKKKNKVVAMCDYCKLQKIIKETVRFSGVDKPFCSEVCKFLSA

Variants of: B1
Assay: abundance fitness (aPCA) (normalised: wild type 0, dead -1); higher = more abundant; growth selection in yeast, the domain comes from the species named
Settings: Homo sapiens

Abundance fitness of substitutions, site by site:
D61: W -0.195
E2: Q -0.498
G4: N -0.032
P52: L -0.567
E1: F -0.277
T5: W -0.132
F13: P -0.644
K45: L -0.502
T34: S -0.077
V8: F -0.373
G7: R -0.781
R12: Q -0.821
N19: G -0.055
A15: L -0.626; Q -0.787
P18: T -0.333
Y11: G -0.429; K 0.343
I29: G -0.738
P60: V -0.174; T 0.088
R63: G 0.119
D27: A -0.426
F23: S -0.527
G38: E -0.633
Q14: I -0.188; C -0.268
G26: N -0.563
A9: D -1.01; W -0.6

Variants of: B2
Assay: as above
Settings: Homo sapiens

Abundance fitness, by site and new letter:
N8: H -0.117; M -0.009; V -0.088; A 0.013; C -0.015; W -0.154; I -0.168; E 0.018; T -0.067; Y -0.264; K 0.01; Q 0.044; F -0.172; R -0.02; L -0.015; S 0.042; P -0.129
P15: I -0.412; K -0.038; L -0.483; Y -0.651; R -0.119; M -0.335; D -0.03; F -0.478; T -0.132; E -0.083; Q -0.126; W -0.534; A -0.075; V -0.37; G -0.163; S -0.119; H -0.213
E16: R -0.102; K 0.002; W -0.13; D -0.169; L -0.139; M -0.14; Y -0.194; V -0.109; A -0.091; P -0.414; Q -0.03; T -0.037; C -0.102; G -0.279; S -0.146; H -0.307; N -0.26
L10: V -0.002; Y -0.026; S -0.066; F 0.107; G 0.049; W 0.004; R 0.063; C -0.05; I -0.135; Q 0.023; E 0.063; T -0.085; D -0.002; P 0.034; K 0.017; A 0.051
K3: M -0.192; F -0.116; V -0.138; Q -0.032; I -0.124; D -0.186; W -0.243; C -0.163; R -0.075; Y -0.132; L -0.073; N -0.011; P -0.071; E 0.001; H -0.156; T -0.102; S 0.021; G -0.078
K1: L -0.271; V -0.355; E -0.104; Q -0.194; A -0.276; M -0.252; G -0.229; D -0.008; W -0.536; C -0.147; S -0.131; F -0.697; H -0.209
L18: G -0.033; R -0.077; V -0.02; Q -0.042; W -0.019; I -0.159; A -0.031; C -0.113; P -0.307; T -0.081; K -0.059
T13: P -0.128; Q -0.093; Y -0.029; G -0.024; S -0.148; D -0.146; C -0.201; A -0.074; E -0.06; H -0.039; N -0.128; K -0.056; I 0.031; W -0.162; L -0.176; R -0.087; V -0.098
Q5: R -0.226; K -0.194; Y -0.057; T -0.113; L -0.118; S -0.248; G -0.041; P -0.204; E -0.33; W -0.206; D -0.405; V -0.077; I -0.156; A -0.023
K21: A 0.001; C -0.036
L2: D 0.069; R 0.014; G 0.082; H -0.131; W -0.119; E 0.109; T 0.125; A 0.096; Q 0.099; S 0.031; F 0.018; P -0.068; V 0.01; C -0.089; M 0.048; I -0.06
C7: S -0.823; V -1.11; L -0.951; P -1.07; K -0.451; W -0.919; I -1.02; E -0.722; T -0.792; F -0.845; H -0.575; G -0.442; M -0.76; N -0.23; Q -0.887
Y20: Q -0.01; C -0.023; R -0.121; H -0.079; K -0.123; A 0.031; M -0.062; N -0.059; D -0.033; L 0; F 0.054; G -0.078; T 0.019; I 0.031
H6: G -0.04; T -0.079; C -0.046; R -0.03; P -0.993; E 0.008; I -0.154; S -0.085; K -0.46; F -0.14; W -0.102; V -0.074; M 0.033; D -0.1; L -0.104; A -0.043; Q -0.098
H9: Y 0.015; F -0.153; N -0.011; K 0.034; C -0.085; S -0.032; E -0.028; V 0.032; G 0.014; P -0.69; A 0.005; Q 0.049; M 0.022; R 0.037; W -0.069; T 0.042
C4: A -0.74; D -0.879; M -1.05; L -0.698; H -0.649; E -0.81; G -0.772; K -0.687; P -0.681; S -0.702; V -0.758; R -0.877; W -1.11
L17: F -0.168; D -0.044; T 0.086; N 0.19; Y -0.081; P 0.024; E 0.166; M 0.061; C -0.011; K 0.102; G -0.042; A -0.003; S 0.117; Q 0.156; W 0.065
K14: D -0.081; T -0.032; V -0.141; E -0.053; F -0.298; L -0.101; S -0.085; N -0.1; R -0.104; P -0.182; Y -0.492; C -0.243; W -0.408; M -0.287; Q -0.126
F19: P 0.101; G -0.053; E 0.129; T -0.03; S 0.033; K 0.182; M -0.196; I -0.152; R 0.103; A 0.057; Q 0.081; W -0.005; D 0.126
A12: N -0.218; V -0.223; P -0.131; Y -0.205; C -0.096; T -0.056; M -0.105; D -0.047; W -0.134; H -0.132; I 0.062; K 0.008; S -0.072; F -0.181
F11: R -0.198; G -0.171; C -0.098; L -0.129; M -0.134; W -0.207; I -0.25; T 0.014; H -0.354; K -0.13; D -0.339; S -0.094; V 0.031; P -0.049
